Source: publication PMC10018343 (Nucleic Acids Research, 2023)

T1: biotinylated Bre1^R6BR (Bre1 amino acids 1-212 with AviTag) (S. cerevisiae, UniProt Q07457 1-212, biotin on the AviTag)
T1 sequence (looked up): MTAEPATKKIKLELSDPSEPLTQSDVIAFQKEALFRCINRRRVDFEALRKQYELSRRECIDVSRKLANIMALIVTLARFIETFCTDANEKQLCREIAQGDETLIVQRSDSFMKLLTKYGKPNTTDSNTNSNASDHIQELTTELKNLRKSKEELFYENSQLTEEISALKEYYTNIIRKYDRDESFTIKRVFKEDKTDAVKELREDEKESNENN

B1: His6Rad6 (wild type), purified alone as BLI analyte (enzyme, S. cerevisiae, UniProt P06104 1-172, looked up)
chain: MSTPARRRLMRDFKRMKEDAPPGVSASPLPDNVMVWNAMIIGPADTPYEDGTFRLLLEFDEEYPNKPPHVKFLSEMFHPNVYANGEICLDILQNRWTPTYDVASILTSIQSLFNDPNPASPANVEAATLFKDHKSQYVKRVKETVEKSWEDDMDDMDDDDDDDDDDDDDEAD
B2: His6Rad6 (amino acids 1-150), co-expressed with Bre1^R6BR (enzyme, S. cerevisiae, UniProt P06104 1-150, looked up)
chain: MSTPARRRLMRDFKRMKEDAPPGVSASPLPDNVMVWNAMIIGPADTPYEDGTFRLLLEFDEEYPNKPPHVKFLSEMFHPNVYANGEICLDILQNRWTPTYDVASILTSIQSLFNDPNPASPANVEAATLFKDHKSQYVKRVKETVEKSWE
B3: Bre1^R6BR (Bre1 amino acids 1-212, Rad6-binding region) (domain or fragment, S. cerevisiae, UniProt Q07457 1-212, looked up)
chain: T1 sequence (looked up)

Experiments:
[1] = molecular target: T1, biotinylated Bre1^R6BR (Bre1 amino …); experiment: BLI
[2] = molecular target: B3; experiment: SEC-MALS
SEC-MALS = molecular target: the molecule itself; experiment: SEC-MALS

B1
Kd [1]: 112 nM

B2
stoichiometry N [2]: 0.5 Rad6 per Bre1^R6BR subunit

B3
stoichiometry N (SEC-MALS): 2
